# Assay results published in the nanobody polyreactivity screen of Harvey et al. (2022).
# Assay: yeast display, Sf9 membrane polyspecificity reagent, FACS + sequencing; frameworks hold sequencing errors
# Outline: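 A nanobody's polyreactivity label depends on the gate it was sorted from. Yeast display cells were stained with 10% biotinylated, detergent-solubilized Sf9 membrane reagent for 1 hour at 4 °C, enriched on streptavidin microbeads and sorted by FACS. The low and high (top ~1%) gates were set on anti-HA fluorescence for expression and streptavidin fluorescence for reagent binding.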
row,Sequence,polyreactivity (PSR sort gate)
1,QVQLVESGGGLVQAGGSLRLSCAASGYILRPYSKVWYRQSPGKERELLASISRSSGNTFYADSVKGRFTISRDNAKNSVYLEMNSLKPDDSAVYYCAKDRSQRDLVYFPRVIYRMDYWGQGTQVNVSS,high polyreactivity
2,QVQLVESGGGLVQAGGSLRLSCAASGITFYYYARGWYRQAPGKERELVAAINSGGITNYADSVKGRFTISRDNAKNTVFLQMNSLKPEDTAVYYCAASSGFRYRYGYWGQGTQVTVSS,high polyreactivity
3,QVQLVESGGGLVQAGGSLRLSCAASGRIFSINVKGWYRHAPGKERELVAAISKRGGSTYYADSVKGRFTISRDNAKNTVYLQMNSLKPEDTAVYYCAARRHYTYGNGPSRGGQMDYWGQGTQVTVSS,high polyreactivity
4,QVQLVESGGGLVQAGGSLRLSCAASGITFYVNAMGWYRQAPGKERELVAAITQSVDITSYADSVKGRFTISRDNAKNTVYLQMNSLKPEDTAVYYCATRGIPDDNARDYWGQGTQVTVSS,low polyreactivity
5,QVQLVESGGGLVQAGGSLRLSCAASGSIFSSNAMGWYRQAPGKERELVAAITRGGRTTYADSVKGRFTISRDNAKNTVYLQMNSLKPEDTAVYYCNAESYLTGWWVDYWGQGTQVTVSS,low polyreactivity
6,QVQLVESWGGLVQAGGSLRLSCAASGSIFRPYAMGWYRQAPGKERELVAAISSSGGSTYYADSVKGRFTISRDNAKNTVYLQMNSLKPEDTAVYYCAAESRSTWIHSRDYWGQGTQVTVSS,low polyreactivity
7,QVQLVESGGGLVQAGGSLRLSCAASGRIFWTYAMGWYRQAPGKERELVAAINSSDGTYYADSVKGRFTISRDNAKNTVYLQMNSLKPEDTAVYYCNADRDALVGYDYDYWGQVTQVTVSS,low polyreactivity
8,QVQLVESGGGLVQAGGSLRLSCAASGFIFGGNAMGWYRQAPGKERELVAAISKSGGRTYYADSVKGRFTISRDNAKNTVYLQMNSLKPEDTAVYYCAAVPGRTAEDYGEDYWGQGTQVTVSS,high polyreactivity
9,QVQLVESGGGLVQAGGSLRLSCAASGRIFKVNTMGWYRQAPGKERELVASIRGGGSTNYADSVKGRFTISRDNAKNTVFLQMNSLKPEDTAVYYCAVGPNSVGNRSYGFDYWGQGTQVTVSS,low polyreactivity
10,QVQLVESGGGLVQAGGSLRLSCAASGRTLYRNAMGWDRQAPGKERELVATITSGGSTYYADSVKGRFTISRDTAKNTVYLLMNSLKPEDTAVYYCNADWYWRVYWGQGTQVTVSS,high polyreactivity
11,QVQLVESGGGLVQAGGSLRLSCAASGSIFYVNAMGWYRQAPGKERELVAAISVRGGRTYYADSVKGRFTISRDNAKNTVYLQMNILNPEDTAVYYCATRISTVGRYDYWGEGTQVTVSS,high polyreactivity
12,QVQLVESGGGLVQAGGSLRLSCAASGRIFGYYAMGWSRQAPGKEWELVAAISSGGRTYYADSVKGRFTISRDNAKNTVYLQMNSLKPEDTAVYYCAARSRVPPAGPRYDYWGQGTQVTVSS,high polyreactivity
13,QVQLEESGGGLVQAGGSLRLSCAASGSTFFIYAMGWYRQAPGKEREMVAAISGSGGTTYYADSVKGRFTISRDNAKNTVYLQMNSLKPEDTAVYYCAARTFSAFWRGGYDYWGQGTQVTVSS,low polyreactivity
14,QVQLVESGGGLVQAGGSLRLSCAASGRTFSSNTMGWYRQAPGKERELVAAITKSGANTYYADSVKGRFTISRDNAKNTVYLQMNSLKPEDTAVYYCAAPGKVQRYYYWGQGTQVTVSS,high polyreactivity
15,QVQLVESGGGLVQAGGSLRLSCAASGSTFYTNAMGWYRQAPGKERELVAAINRSGGRSYYADSVKGRFTISRDNAKNTVYLQMNSLKQEDTAVYYCAARYPLRISTDTARDYYWGQGTQVTVSS,low polyreactivity
16,QVQLVESGGGLVQAGGSLRLSCAASGIIFSGNAMGWSRQAPGKERELVAAITLSGGSTYYADSVKGRFTISRDNAKNTVYLQMNSLKPEDTAVYYCNAVYDTKYSLRDIDTEYGSWGQGTQVTVSS,low polyreactivity
17,QVQLVESGGGLVQAGGSLRLSCAASGSTFVFNAMGWYRPAPGKERELVAAISSTGSTYYADSVKGRFTISRDNAKNTVYLQMNSLKPEDTAVYYCAAPYGFSYKGATYDSWGQGTQVTVSS,high polyreactivity
18,QVQLVESGGGLVQAGGSLRLSCADSGSIFWYYAMGWSRQAPGKETELVADITSTGGSTYYADSVKGRFTISRDYAKNTVYFQMNSLKPEVSAVYYCAAEACYHWYYSLGYWGQGTQVTVSS,high polyreactivity
19,QLQLVESGGGLVQAGGSLRLSCAASGSTFGFYAMGWYRQAPGKARELVAAISSSGSTYYADSVKGRFTISRDNAKITVYLQMNSLKPEDTAVYYCAAQPGYYDYDYWGQGTQVTVSS,low polyreactivity
20,QVQLVESGGGLVQAGGSLRLSCAASGRTFRYYAMGWYRQAPGKERELVAAITSADSTNYADSVKGRFTISRDNAKNTVYLQMNSLKPEDTAVYYCAAGYVYQAAAKYGRIFWGYDSWGQGSQVTVSS,low polyreactivity

row,Sequence,polyreactivity (PSR sort gate)
1,QVQLVESGGGLVQAGGSLRISCAASGRTFRTYAMGWYRQAPGKERELVAAISYSDGSTYYADSVKGRFTISRDNAKNTVYLQMNSLKPEDTAVYYCAIEYEDPYYIRYQVGYDFDYWGQGTQVTVSS,low polyreactivity
2,QVQLVESGGGLVQAGGILRLSCAASGSTFVGYAMGWNRQAPGKERELVAAISRTGASTYYADSVKGRFTISRDNAKNTVFLQMNSLKPEDTEVYYCAYYYSIYDYWGQGTLVTVSS,high polyreactivity
3,QVQLVESGGGLVQAGGSLRLSCAASGSIFVFNAMGWYRQAPGKERELVAAISNGDGTNYADSVKGRFTISRDNAKNTVYLQMNSLKPEETAVYYCAAVWTTLIVIEYDYWGQGTQVTVSS,low polyreactivity
4,QVQLVESGGGLVQAGGSLRLSCAASGSTFVGYARGWYRQEPGNETELVAAISGSGTSTYYADSVKGRFTISLDNAKNTVYLQMNSLKPEDTAVYYCKADPIFVYSSYNYWGQGTQVTVSS,low polyreactivity
5,QVQLVESGGGLVQAGGSLRLSCAASGFTFDYNAMGWYRQAPGKERELVAAISNTGDSTYYADSVKGRFTISRDNAKNTVYLQMNSLKPEDTAVYYCAADSLFYDYWEYDYWGQGTQVTVSS,low polyreactivity
6,QVQLVESGGGLVQAGGSLRLSCAASGSISGYYAMGWSRQAPGKERELVASIRYTGARTYYADSVKGRFTISRDNAKNTVYLQMNSLKPEDTAVYYCNAYTRYPFYFVTSKYDYWGQGTQVTVSS,low polyreactivity
7,QVQLVESGGGLVQAGGSLRLSCAASGNTFWYYAMGWYRQAPGKERELVAAISWDGGITYYADSVKGRFTISRDNAKNTVFLQMNRLKPEDTAVYYCATLIPRKGSRYYHRGYWGQGTQLTVSS,high polyreactivity
8,QVQLVESGGGLVQAGGSLRLSCGASGRIFSYYAMGWYRQAPGKERELVAAINTGGDTYYADSVKGRFTISRDNAKNTVYLQMNSLKPEDTAVYYCAAAYGWGYYYGYGYTPTYDYWGQGTQVTVSS,low polyreactivity
9,QVQLVESGGGLVQAGGSLRLSCAASGSIFVYYAMGWYRQAPGNERELVAAINNGGSTTYADSVKGRFTISRDNAKNTVYLQMNSLKPEDTAVYYCAADLEPRTNAPGLPTPDGYYWGQGTQVTVSS,low polyreactivity
10,QVQLVESGGGLVQAGGSLRLSCAASGSIFYPYVMGWYRQAPGKERELVATITWSGDDTNYADSVKGRFTISRDNAKNTVYLQMNSLKPEDTAVYYCAVGYGDYLYYDYDYWGQGTQVTVSS,low polyreactivity
11,QDQLVESGGGLVQAGGSLSLSCAASGRIFRGNAMGWYRQAPGKERELVASITWRGTSTYYADSVKGRFTISRDNAKNTVYLQMNSLKPEDTAVYYCAASLYSWGQGTEVTVSS,high polyreactivity
12,QVQLVESGGGLVQAGGSHRLSCAASGSTFVYYAMGWYRQAPGKERELVADISSSTGSTYYADSVKGRFTISRDNAKNTVYLQMNSLKPEDTAVYYCAAGRLKFWYTYIIYDFYYWGQGTQVTVSS,low polyreactivity
13,QVQLVESGGGLVQAGGSLRLSCAASGIIFWWYAMGWYRQAPGKERELVAAISGTGGSTYYADSVKGRFTISRDNAKNTVYFQMNSLKPEDTAVYYCAARGKSSSYYDYDYWGQGTQVTVSS,low polyreactivity
14,QVQLVESGGGLVQAGGSLSLSCAASGSTIVYYAMGWYRPAPRKERELVAAINYSSGSTYYADSVKGRFTISRDNSKKTVYLQMNSLKPEDRAVYYCATDLLYYQYYSEYDYWGQGTQVTVSS,high polyreactivity
15,QVQLVESGGGLVQAGGSLRLSCAASGSIFQYYVMGWYRQAPGKERELVAAIRRSGTTYYADSVKGRFTISRDNAMITVYLQMNSLKPEVTAFYYCKKVRCQEPSNYDYWGQGTQVTVSS,low polyreactivity
16,QVQLVESGGVLVQAGGSLRLSCAASGSIFILYAMGWYRQAPGKERELVAAISSTGTTYYADSVKGRFTISRDNAKNTVYLQMNSLKPEDTAVYYCATDEHSSGRTPYDYWGQGTQVTVSS,low polyreactivity
17,QVQLVESGGGLVQAGGSLRLSCAASGSTFSYYAMGWYRQAPGKERELVAAITKRGGSTYYADSVKGRFTISRDNAKNTVYLQMNSLKPEVTAVYYCAAKRKSYYSYNFDYWGQGTQVTVSS,high polyreactivity
18,QVQLVESGGGLVQAGGSLRLSCAASGFIFDSNAMGWYRQAPGKERELVAAISRSGASTYYADSVKGRFTISRDNAKNTVYLQMNSLKPEDTSVYYCAASVRKIHDRFYYWGQGTQVTVSS,high polyreactivity
19,QVQLVESGGGLVQAGGSLRLSCAASGIIFSGNAMGWYRQAPGKERELVAAITLSGGSTYYADSVKGRFTISRDNAKNTVYLQMNSLKPEDTAVYYCNAVYDTNYSLRDIDTEYGSWGQGTQVTVSS,low polyreactivity
20,QVQLVESGGGLVQAGGSLRLSCAASGSISWLYAMGWYRQAPGKEREFVAAISESGDTYYADSVKGRFTISRDNAKNTVYLQMNSLKPEDTAVYYCAATRPDGVTYDYWGQGTQVTVSS,low polyreactivity
